{"source": "patent US20160368985A1", "about": "(published 2016)", "binders": {"B1": {"name": "CyFcRH5 (receptor)", "chain": "QFVRTYKSHFLQPPWTTVFRGERVNLTCKGFGFYSSQKTKWYYRHLGKEISRETQKNTLEVQESGEYRCQAQGSPLSSPVSLDFSSASLILQAPLSVFEGDSVVLRCRAKAEVTLKTTIYKNENVLAFLNKSTDFHISHASLKDNGAYRCTGYKETCCLVSSNTVKIQVQESFTRPVLRVSSFQPISGSPVTLTCETQLSLERSDVPLQFCFFRNDQMLGSGCSLSPKFRITAMWSKDSGSYWCKAATMCYDTTSNSLRSWIQVLIPASHPVLTLSPEKALNFEGTKVKLHCETQEDSLRTLYKFYHDGVPLRYKSVRCEKGASISFSLTTEHSGNYYCTADNGHGAKPSEAVSLSVTVPVSRPVLTLSSAEDLISEGAKLTLHCEAQRGSLPIVYQFHHENASLGNRSAHSAGGVAISFSLTADHSGNYYCTANNGFGPQRSEAVSLSITVPVSRPVLTLSSAEALTFEGATVTLYCEVQRGSPRILYQFYHEDVPLGSNSTPSVGKVSFSFSLTAAHSGNYYCTADNGFGPQRSEAVSLFVTVPVSRPILTLRVPRAQAVVGDLLELRCEALRGSPPIMYWFYHEDVTLGSSSVPSGGEASFNLSLTAEHSGNYSCEANNGLVAQHSDTISLSVIVPVSRPILTFRAPRAQAVVGDLLELHCEALRGSSPILYWFYHEDVTLGKISAPSGGGAYFNLSLTTEHSGIYSCEADNGLEAQRSEMVTLKVAVPVSRPVLTLRAPRAQVAVGDLLELHCEALRGSPLILYQFYHEDVTLGNSSALSGGAFFNLSLTAEHGNYSCEADNGLGAQRSETVTLYLTGLTENRSGPVATG"}}, "molecular_target": "7D8.RbIgG", "test": "SPR (Biacore)", "data": [{"binder": "B1", "values": [{"measurement": "Kd", "value": 1.89, "unit": "nM"}]}]}
